Laboratory results taken from article PMC10427625, “Structural basis for negative regulation of the Escherichia coli maltose system” (Nature Communications, 2023).

Key:
Assay in all cases: pull-down; GST-tagged MalY incubated with an excess of WT or mutant MalT on ice for 30 min, Glutathione Sepharose 4B, buffer TKCl with 0.1 mM ADP and 10 μM PLP; elution with 20 mM glutathione, SDS-PAGE, Coomassie
Conditions in all cases: both partners purified
[1] = molecular target: T1, MalT (wild type), N-terminally His-tagged (Escherichia coli, UniProt P06993 1-901)
T1 construct: Purified with 0.1 mM ADP or 0.4 mM ATP; the elution at 103 kDa fits the whole protein; In PDB 8BOB only residues 1-423 are well defined; also called WT MalT; MalT WT; source: E. coli BL21 (DE3) ΔmalT220, purified (Ni Sepharose, gel filtration)
T1 sequence (looked up): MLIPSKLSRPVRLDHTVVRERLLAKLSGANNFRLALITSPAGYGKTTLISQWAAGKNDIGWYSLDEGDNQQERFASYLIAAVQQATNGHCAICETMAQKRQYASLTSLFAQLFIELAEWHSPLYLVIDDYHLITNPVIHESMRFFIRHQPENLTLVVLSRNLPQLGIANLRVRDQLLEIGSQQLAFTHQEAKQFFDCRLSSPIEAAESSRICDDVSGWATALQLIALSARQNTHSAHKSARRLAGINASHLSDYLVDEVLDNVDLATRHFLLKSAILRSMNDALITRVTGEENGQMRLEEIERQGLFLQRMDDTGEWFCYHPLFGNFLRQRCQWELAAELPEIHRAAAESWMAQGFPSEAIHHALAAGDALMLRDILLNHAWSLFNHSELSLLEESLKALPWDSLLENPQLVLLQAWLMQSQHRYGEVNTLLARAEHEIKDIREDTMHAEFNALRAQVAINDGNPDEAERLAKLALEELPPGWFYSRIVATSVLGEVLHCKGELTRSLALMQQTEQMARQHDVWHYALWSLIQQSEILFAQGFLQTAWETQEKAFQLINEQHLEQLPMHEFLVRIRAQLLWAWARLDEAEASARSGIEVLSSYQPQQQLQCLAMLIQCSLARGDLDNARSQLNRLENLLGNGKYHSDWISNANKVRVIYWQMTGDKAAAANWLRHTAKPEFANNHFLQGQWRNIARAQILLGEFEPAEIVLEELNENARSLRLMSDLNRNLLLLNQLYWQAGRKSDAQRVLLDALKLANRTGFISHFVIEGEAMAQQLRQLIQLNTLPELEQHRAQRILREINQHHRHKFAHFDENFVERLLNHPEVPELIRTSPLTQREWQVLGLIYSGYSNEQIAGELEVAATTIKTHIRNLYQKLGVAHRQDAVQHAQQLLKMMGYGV

[2] = molecular target: T2, MalT-E140A, N-terminally His-tagged (Escherichia coli, UniProt P06993 1-901, E140A)
T2 construct: MalT of Escherichia coli, variant of plasmid pOM206 made by site-directed mutagenesis; source: E. coli BL21 (DE3) ΔmalT220, purified (Ni Sepharose, gel filtration)
T2 sequence (looked up): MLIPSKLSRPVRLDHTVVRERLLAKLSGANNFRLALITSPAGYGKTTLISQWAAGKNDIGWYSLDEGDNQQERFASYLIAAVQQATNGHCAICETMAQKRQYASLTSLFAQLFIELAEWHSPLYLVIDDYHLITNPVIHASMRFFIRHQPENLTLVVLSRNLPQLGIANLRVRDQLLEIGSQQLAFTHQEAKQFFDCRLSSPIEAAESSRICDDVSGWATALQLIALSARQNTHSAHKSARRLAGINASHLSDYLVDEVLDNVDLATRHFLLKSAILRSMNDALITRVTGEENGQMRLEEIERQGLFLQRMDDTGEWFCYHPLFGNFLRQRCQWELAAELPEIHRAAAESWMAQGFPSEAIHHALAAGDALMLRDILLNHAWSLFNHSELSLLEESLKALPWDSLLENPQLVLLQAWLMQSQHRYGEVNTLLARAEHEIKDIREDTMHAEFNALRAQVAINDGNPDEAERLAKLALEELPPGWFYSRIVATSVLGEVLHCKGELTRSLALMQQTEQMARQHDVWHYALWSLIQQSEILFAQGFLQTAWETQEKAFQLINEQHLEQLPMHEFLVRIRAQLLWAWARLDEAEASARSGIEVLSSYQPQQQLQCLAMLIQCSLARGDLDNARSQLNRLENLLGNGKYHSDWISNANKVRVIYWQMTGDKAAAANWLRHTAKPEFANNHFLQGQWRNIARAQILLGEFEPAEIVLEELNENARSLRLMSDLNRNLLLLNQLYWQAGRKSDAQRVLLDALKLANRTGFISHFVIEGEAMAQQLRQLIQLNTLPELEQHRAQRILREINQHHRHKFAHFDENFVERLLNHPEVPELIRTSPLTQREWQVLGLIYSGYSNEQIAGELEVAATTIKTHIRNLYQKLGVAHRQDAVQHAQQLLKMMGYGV

[3] = molecular target: T3, MalT-N169A, N-terminally His-tagged (Escherichia coli, UniProt P06993 1-901, N169A)
T3 construct: MalT of Escherichia coli, variant of plasmid pOM206 made by site-directed mutagenesis; source: E. coli BL21 (DE3) ΔmalT220, purified (Ni Sepharose, gel filtration)
T3 sequence (looked up): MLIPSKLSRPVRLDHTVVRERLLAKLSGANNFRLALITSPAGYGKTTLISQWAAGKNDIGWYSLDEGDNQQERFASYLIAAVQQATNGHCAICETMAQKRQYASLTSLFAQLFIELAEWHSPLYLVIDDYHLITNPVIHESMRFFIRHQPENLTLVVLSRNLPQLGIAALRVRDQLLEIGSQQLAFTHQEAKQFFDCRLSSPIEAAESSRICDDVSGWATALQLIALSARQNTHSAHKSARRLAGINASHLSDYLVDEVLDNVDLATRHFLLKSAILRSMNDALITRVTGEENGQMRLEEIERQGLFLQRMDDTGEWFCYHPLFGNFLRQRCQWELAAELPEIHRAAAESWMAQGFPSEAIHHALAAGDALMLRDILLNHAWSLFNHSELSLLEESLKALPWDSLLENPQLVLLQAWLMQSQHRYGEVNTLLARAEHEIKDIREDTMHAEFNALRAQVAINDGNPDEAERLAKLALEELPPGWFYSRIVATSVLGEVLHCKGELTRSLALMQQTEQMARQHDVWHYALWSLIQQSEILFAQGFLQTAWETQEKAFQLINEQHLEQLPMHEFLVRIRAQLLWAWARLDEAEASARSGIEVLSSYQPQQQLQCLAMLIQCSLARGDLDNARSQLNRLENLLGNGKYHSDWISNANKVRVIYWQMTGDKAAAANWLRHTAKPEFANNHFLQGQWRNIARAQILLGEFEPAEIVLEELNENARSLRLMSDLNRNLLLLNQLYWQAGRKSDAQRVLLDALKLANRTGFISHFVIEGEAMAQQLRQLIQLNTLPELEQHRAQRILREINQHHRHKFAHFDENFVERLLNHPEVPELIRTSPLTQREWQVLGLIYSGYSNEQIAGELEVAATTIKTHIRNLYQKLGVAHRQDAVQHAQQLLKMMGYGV

binding result [1]: binds
binding result [2]: binds
binding result [3]: binds
B1: N-terminally GST-tagged MalY (enzyme, Escherichia coli, UniProt P23256 1-390, looked up)
chain: MFDFSKVVDRHGTWCTQWDYVADRFGTADLLPFTISDMDFATAPCIIEALNQRLMHGVFGYSRWKNDEFLAAIAHWFSTQHYTAIDSQTVVYGPSVIYMVSELIRQWSETGEGVVIHTPAYDAFYKAIEGNQRTVMPVALEKQADGWFCDMGKLEAVLAKPECKIMLLCSPQNPTGKVWTCDELEIMADLCERHGVRVISDEIHMDMVWGEQPHIPWSNVARGDWALLTSGSKSFNIPALTGAYGIIENSSSRDAYLSALKGRDGLSSPSVLALTAHIAAYQQGAPWLDALRIYLKDNLTYIADKMNAAFPELNWQIPQSTYLAWLDLRPLNIDDNALQKALIEQEKVAIMPGYTYGEEGRGFVRLNAGCPRSKLEKGVAGLINAIRAVR
notes: MalY of E. coli; full-length malY amplified from E. coli genomic DNA, cloned in pGEX-6P-1; Bait of the pull-down; 10 μM PLP present; not shown: GST, N-terminal, kept
